Assay results published in patent US6258556, “cDNA and genomic clones encoding human µ opiate receptor and the purified gene product” (The United States of America as represented by the …, dated 2001).
Non-standard residues stand in square brackets, D forms with d. No end group written: not given here. *: point of attachment. NMeF = CN[C@@H](Cc1ccccc1)C(=O)O; NHCH2CH2OH = OCCN*

Legend:
[1] = biological target: human µ opiate receptor (human); assay: [3H]DAMGO binding to COS cells expressing hµOR1, with against without 50 µM Gpp(NH)p
Method: (§1) COS cells were transfected by electroporation with 20 µg/10^7 cells of plasmid pcDNA1hµOR1, grown for two to three days and tested for opiate receptor expression by radioligand binding as described, except that whole cell suspensions were used. Adenyl cyclase activities were assessed by radioimmunoassay as described. Cells transfected with the pcDNA1 vector alone served as negative controls.

[2] = biological target: human µ opiate receptor (human); assay: [3H]DAMGO binding to COS cells expressing hµOR1, with sodium chloride as low as 5 mM; CLM-00019 ties this to DAMGO
Method: as §1

[3] = biological target: human µ opiate receptor (human); assay: saturation radioligand binding, whole COS cells transfected with pcDNA1hµOR1
Method: as §1

[4] = biological target: human µ opiate receptor (human); assay: displacement of [3H]DAMGO from COS cells expressing hµOR1; paragraph 40 says 'low affinities', CLM-00014 calls the value a KD
Method: as §1

[5] = biological target: human µ opiate receptor (human); assay: displacement of [3H]DAMGO from COS cells expressing hµOR1; 'low affinities of less than 100 nM' is read as weaker than 100 nM
Method: as §1

B1: (D-ala^2, N-methyl-phe^4, glyol^5) enkephalin (peptide)
peptide: Y[dA]G[NMeF][NHCH2CH2OH]
modifications: not fully specified (C-terminus); printed as (D-ala^2, N-methyl-phe^4, glyol^5) enkephalin; also: [3H] label in binding assays
- fold reduction of affinity with 50 µM Gpp(NH)p [1]: > 3 fold
- fold reduction of binding affinity with 5 mM sodium chloride [2]: 2 fold
- Kd [3]: 1.2 nM

B2: dynorphin A 1-17 (peptide)
peptide: YGGFLRRIRPKLKWDNQ
- Kd [4]: 284 nM

B3: DPDPE (D-pen^2, D-pen^5 enkephalin) (peptide)
peptide: YXGFX
modifications: D-penicillamine at 2 and at 5 (written X)
- Kd [5]: > 100 nM
